Consider 1 substance from article PMC7690626.

The assay has as its target T22-GFP-H6 protein nanoparticle (unlabeled) (horseshoe crab | not stated). Nature of the assay: SEC-MALS; Superdex 200 increase 10/300 GL; 166 mM NaHCO3, 333 mM NaCl, 0.1 mM NiCl2, pH 8; average molar mass of the self-assembled nanoparticles, in duplicate.

“T22-GFP-H6 protein nanoparticle (unlabeled)” displayed a stoichiometry N of 10 copies.

The stoichiometry N is the number of molecules, sites or subunits per partner or assembly.
